The target of this assay is three-helix bundle composed of syntaxin-1A and SNAP-25 (rat) (UniProt P32851). As to the kind of experiment: magnetic tweezers; single pre-assembled SNARE complex held between a PEG-biotin glass surface (NeutrAvidin) and an anti-digoxigenin magnetic bead by two 510-bp DNA handles; force ramps at 1 pN/s, force jumps and 1.2-kHz tracking at 10-16 pN; PBS pH 7.4 with 2.5 uM free SNAP-25; no Cpx.

Substance “rat synaptobrevin-2 (2–97, L32C/I97C) (from UniProt P63045 2-97) (domain or fragment)” showed an average unzipping force (without Cpx) of 14.4 pN.

Values taken from PMC6128827.
